From US20120027774A1 (DYAX, published 2012)

Tests used:
human MMP-9 = human MMP-9 (human, UniProt P14780 107-707, limits assumed); experiment: cell-based or functional assay
[1] = molecular target: T1, Human MMP-9 catalytic domain (BIOMOL, SE-244) (human, UniProt P14780 107-445, limits assumed); experiment: cell-based or functional assay
[2] = molecular target: T1, Human MMP-9 catalytic domain (BIOMOL, …); experiment: cell-based or functional assay; remark: listed apart in the source
[3] = molecular target: T1, Human MMP-9 catalytic domain (BIOMOL, …); experiment: cell-based or functional assay; remark: listed apart in the source
[4] = molecular target: T1, Human MMP-9 catalytic domain (BIOMOL, …); experiment: cell-based or functional assay; remark: listed apart in the source
[5] = molecular target: T1, Human MMP-9 catalytic domain (BIOMOL, …); experiment: enzyme inhibition, competitive model; intercept of IC50 against substrate concentration (3 to 15 µM), 0.6 nM enzyme
Description: Experiments were performed to characterize the interaction of the M0166-F10 hIgG1 with human MMP-9. The Ki was measured and the inhibition mechanism was determined.
Materials: [0427] Substrate: Mca-KPLGL-Dap(Dnp)-AR-NH₂ (M-2350) from BACHEM (521575). A 10 mM stock solution was prepared in DMSO. [0428] Human MMP-9 catalytic domain (BIOMOL, SE-244), stock solution at 0.24 mg/ml. [0429] M0166-F10 hIgG1: 2551-095. Dialysed against TCN. Stock solution at 0.226 mg/ml. [0430] Experiments were performed in TCNB: 50 mM Tris/HCl, 10 mM CaCl₂, 150 mM NaCl, 0.05% Brij 35, pH 7.5. [0431] 96-well black plates from Perkin Elmer (6005270). [0432] Spectramax M2e to measure fluorescence emission of the substrate upon hydrolysis (temperature control set at 30° C.; λexc=328 nm and λₑₘ=393 nm).
Procedure: [0434] 90 μl of the enzyme (final concentration=0.6 nM) was preincubated with 90 μl of various concentrations (0-100 nM final) of M0166-F10 for 1.5 h at 30° C. 20 μl the substrate was then added to a final concentration ranging from 3 to 15 μM, and initial rates were recorded. [0435] Each data point was measured in triplicate, and initial rates were averaged. […] Averaged initial rates were plotted against the M0166-F10 concentration for each substrate concentration, and IC₅₀'s were calculated using the following equation: […]

human MMP-1 = molecular target: T2, human MMP-1 (human, UniProt P03956 100-269, limits assumed); experiment: cell-based or functional assay
T2 sequence (looked up): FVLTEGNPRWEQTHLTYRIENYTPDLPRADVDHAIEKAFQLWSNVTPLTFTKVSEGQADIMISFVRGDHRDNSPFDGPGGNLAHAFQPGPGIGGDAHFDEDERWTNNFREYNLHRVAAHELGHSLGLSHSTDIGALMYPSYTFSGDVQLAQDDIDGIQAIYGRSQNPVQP

human MMP-2 = human MMP-2 (human, UniProt P08253 110-452, limits assumed); experiment: cell-based or functional assay
human MMP-2, sequence (P08253 110-452 limits assumed): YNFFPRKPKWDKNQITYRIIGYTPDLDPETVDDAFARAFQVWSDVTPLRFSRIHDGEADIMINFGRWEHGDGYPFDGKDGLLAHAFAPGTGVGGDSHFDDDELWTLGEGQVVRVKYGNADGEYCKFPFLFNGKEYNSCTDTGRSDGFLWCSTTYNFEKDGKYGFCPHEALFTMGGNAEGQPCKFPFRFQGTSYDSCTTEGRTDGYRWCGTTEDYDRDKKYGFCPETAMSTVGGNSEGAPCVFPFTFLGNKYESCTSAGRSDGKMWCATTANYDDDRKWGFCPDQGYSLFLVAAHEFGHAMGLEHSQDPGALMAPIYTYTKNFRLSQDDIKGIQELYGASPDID

human MMP-3 = human MMP-3 (human, UniProt P08254 100-272, limits assumed); experiment: cell-based or functional assay
human MMP-3, sequence (P08254 100-272 limits assumed): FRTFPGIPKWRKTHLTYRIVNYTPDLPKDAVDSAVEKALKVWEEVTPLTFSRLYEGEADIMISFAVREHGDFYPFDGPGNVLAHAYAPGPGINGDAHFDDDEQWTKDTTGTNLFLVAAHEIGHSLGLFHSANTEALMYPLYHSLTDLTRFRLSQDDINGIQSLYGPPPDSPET

human MMP-7 = molecular target: T3, human MMP-7 (human, UniProt P09237 95-267); experiment: cell-based or functional assay
T3 sequence (looked up): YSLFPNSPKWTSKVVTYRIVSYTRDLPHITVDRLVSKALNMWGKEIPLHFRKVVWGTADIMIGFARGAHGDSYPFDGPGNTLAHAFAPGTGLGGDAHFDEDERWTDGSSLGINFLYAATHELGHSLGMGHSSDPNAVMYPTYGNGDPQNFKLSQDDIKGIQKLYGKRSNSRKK

human MMP-8 = human MMP-8 (human, UniProt P22894 100-262, limits assumed); experiment: cell-based or functional assay
human MMP-8, sequence (P22894 100-262 limits assumed): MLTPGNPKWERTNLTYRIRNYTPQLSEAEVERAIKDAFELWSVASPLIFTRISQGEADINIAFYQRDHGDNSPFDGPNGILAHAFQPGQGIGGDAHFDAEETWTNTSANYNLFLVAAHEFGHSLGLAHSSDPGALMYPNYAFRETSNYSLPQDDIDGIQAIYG

human MMP-10 = human MMP-10 (human, UniProt P09238 99-271, limits assumed); experiment: cell-based or functional assay
human MMP-10, sequence (P09238 99-271 limits assumed): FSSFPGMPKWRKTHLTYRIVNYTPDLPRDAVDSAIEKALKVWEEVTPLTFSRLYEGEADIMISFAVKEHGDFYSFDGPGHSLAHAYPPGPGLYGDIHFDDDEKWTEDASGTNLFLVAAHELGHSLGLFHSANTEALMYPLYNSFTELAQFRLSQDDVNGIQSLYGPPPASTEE

mouse MMP-9 = mouse MMP-9 (mouse, UniProt P41245 20-730, limits assumed); experiment: cell-based or functional assay
mouse MMP-9, sequence (P41245 20-730 limits assumed): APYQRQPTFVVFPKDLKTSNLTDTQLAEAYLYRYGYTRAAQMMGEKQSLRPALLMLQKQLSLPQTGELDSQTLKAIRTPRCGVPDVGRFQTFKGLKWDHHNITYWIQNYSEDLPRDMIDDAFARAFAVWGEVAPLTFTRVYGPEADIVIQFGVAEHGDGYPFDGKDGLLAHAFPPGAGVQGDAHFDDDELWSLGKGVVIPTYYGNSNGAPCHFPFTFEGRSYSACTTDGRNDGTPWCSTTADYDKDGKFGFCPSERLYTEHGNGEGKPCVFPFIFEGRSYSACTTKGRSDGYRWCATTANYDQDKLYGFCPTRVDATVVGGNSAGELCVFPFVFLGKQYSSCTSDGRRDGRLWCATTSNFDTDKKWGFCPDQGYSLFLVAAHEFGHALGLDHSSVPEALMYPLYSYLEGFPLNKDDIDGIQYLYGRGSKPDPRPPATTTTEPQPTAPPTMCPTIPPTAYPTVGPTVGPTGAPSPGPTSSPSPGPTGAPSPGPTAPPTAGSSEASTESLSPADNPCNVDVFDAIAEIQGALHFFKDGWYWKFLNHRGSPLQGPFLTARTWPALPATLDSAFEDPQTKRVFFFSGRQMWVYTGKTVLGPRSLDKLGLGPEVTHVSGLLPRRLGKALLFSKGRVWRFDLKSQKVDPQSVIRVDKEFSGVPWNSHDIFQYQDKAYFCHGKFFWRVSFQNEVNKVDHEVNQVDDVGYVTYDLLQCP

human MMP-12 = human MMP-12 (human, UniProt P39900 106-268, limits assumed); experiment: cell-based or functional assay
human MMP-12, sequence (P39900 106-268 limits assumed): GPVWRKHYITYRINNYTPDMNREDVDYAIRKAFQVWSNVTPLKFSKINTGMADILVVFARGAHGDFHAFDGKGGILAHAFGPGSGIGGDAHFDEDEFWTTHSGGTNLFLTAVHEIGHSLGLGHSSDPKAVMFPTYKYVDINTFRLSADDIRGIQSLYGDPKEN

human MMP-13 = human MMP-13 (human, UniProt P45452 104-274); experiment: cell-based or functional assay
human MMP-14 = human MMP-14 (human, UniProt P50281 112-284, limits assumed); experiment: cell-based or functional assay
mouse MMP-2 = mouse MMP-2 (mouse, UniProt P33434 30-662, limits assumed); experiment: cell-based or functional assay
mouse MMP-2, sequence (P33434 30-662 limits assumed): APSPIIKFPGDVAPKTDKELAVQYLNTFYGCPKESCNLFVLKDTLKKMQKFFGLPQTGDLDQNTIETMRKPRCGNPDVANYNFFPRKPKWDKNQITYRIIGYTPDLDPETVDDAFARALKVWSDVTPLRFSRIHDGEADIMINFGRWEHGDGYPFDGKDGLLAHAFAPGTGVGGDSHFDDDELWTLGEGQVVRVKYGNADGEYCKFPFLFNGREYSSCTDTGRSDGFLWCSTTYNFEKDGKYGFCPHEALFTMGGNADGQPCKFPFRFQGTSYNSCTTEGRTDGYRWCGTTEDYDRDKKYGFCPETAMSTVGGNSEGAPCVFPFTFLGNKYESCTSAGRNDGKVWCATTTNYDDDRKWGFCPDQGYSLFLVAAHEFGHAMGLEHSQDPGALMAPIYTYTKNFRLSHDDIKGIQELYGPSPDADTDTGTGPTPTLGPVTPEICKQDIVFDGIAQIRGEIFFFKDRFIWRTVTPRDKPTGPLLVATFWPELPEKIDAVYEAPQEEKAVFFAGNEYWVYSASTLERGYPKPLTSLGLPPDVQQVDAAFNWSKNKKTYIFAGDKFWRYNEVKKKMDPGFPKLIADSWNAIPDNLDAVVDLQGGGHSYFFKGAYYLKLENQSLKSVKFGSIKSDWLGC

T1 sequence (P14780 107-445 limits assumed): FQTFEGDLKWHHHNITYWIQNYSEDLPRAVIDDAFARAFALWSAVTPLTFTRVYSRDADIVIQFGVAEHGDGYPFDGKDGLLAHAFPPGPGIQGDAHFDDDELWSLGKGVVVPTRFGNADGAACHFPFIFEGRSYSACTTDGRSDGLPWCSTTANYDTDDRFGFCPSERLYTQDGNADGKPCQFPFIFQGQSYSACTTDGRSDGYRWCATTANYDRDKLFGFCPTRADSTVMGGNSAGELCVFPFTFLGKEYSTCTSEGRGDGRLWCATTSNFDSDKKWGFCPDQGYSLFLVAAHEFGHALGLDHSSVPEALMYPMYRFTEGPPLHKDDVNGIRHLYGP
human MMP-9, sequence (P14780 107-707 limits assumed): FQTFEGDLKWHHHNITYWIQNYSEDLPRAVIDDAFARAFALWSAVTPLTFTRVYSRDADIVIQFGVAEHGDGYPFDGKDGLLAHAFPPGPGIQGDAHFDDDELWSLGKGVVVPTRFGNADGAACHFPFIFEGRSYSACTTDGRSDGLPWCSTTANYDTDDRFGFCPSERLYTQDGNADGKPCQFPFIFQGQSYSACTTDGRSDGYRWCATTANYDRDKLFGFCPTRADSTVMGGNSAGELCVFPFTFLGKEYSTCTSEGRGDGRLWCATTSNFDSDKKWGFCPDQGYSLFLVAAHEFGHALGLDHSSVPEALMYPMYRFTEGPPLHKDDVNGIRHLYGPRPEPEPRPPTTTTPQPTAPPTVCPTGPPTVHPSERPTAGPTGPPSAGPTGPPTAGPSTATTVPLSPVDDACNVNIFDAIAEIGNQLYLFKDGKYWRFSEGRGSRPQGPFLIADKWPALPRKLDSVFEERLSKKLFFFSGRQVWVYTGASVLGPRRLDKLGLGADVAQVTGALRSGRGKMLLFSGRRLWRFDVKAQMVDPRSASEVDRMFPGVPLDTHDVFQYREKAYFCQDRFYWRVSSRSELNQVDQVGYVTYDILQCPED

B1: 539A-M0166-F10 (format not stated: Fab or hIgG-1) (antibody, V domains shown)
VH: EVQLLESGGGLVQPGGSLRLSCAASGFTFSPYLMNWVRQAPGKGLEWVSSIYSSGGGTGYADSVKGRFTISRDNSKNTLYLQMNSLRAEDTAVYYCARIYHSSSGPFYGMDVWGQGTTVTVSS
VL: AQSELTQPPSASAAPGQRVTISCSGSSSNIGSNTVTWYQKLPGTAPKLLIYNNYERPSGVPARFSGSKSGTSASLAISGLQSEDEADYYCATWDDSLIANYVFGSGTKVTVLG
Human MMP-9
  IC50, inhibition of MMP-9 activity: 1.8 nM

B2: 539A-M0166-F10 hIgG1 (antibody, V domains shown)
VH: B1 VH
VL: QSELTQPPSASAAPGQRVTISCSGSSSNIGSNTVTWYQKLPGTAPKLLIYNNYERPSGVPARFSGSKSGTSASLAISGLQSEDEADYYCATWDDSLIANYVFGSGTKVTVLG
notes: Human IgG1; also called DL15
[1]
  IC50 on human MMP-9 activity (fluorogenic substrate, 10 µM): 4.3 nM
[2]
  a (intercept) of the linear fit of IC50 (nM) against M-2350 substrate concentration (µM); unit taken from the IC50 axis: 0.586 nM
  b (gradient) of the linear fit of IC50 (nM) against M-2350 substrate concentration (µM); unit not given: 0.39
[3]
  IC50 (inhibition of enzyme activity, 3 µM substrate M-2350, 0.6 nM enzyme); unit from the concentration axis [panel 3µM]: 2.16 nM
  IC50 (inhibition of enzyme activity, 5 µM substrate M-2350, 0.6 nM enzyme); unit from the concentration axis [panel 5µM]: 2.45 nM
  IC50 (inhibition of enzyme activity, 7.5 µM substrate M-2350, 0.6 nM enzyme); unit from the concentration axis [panel 7.5µM]: 4.22 nM
  IC50 (inhibition of enzyme activity, 10 µM substrate M-2350, 0.6 nM enzyme); unit from the concentration axis [panel 10µM]: 3.99 nM
  IC50 (inhibition of enzyme activity, 12.5 µM substrate M-2350, 0.6 nM enzyme) [panel 12.5µM]: 5.35 nM
  IC50 (inhibition of enzyme activity, 15 µM substrate M-2350, 0.6 nM enzyme); unit from the concentration axis [panel 15µM]: 7.06 nM
[4]
  residual enzyme activity in the presence of 1 µM antibody, 10 µM fluorogenic peptide substrate (unit not given): 4
[5]
  Ki: 0.3 nM

B3: 539A-M0166-F10 Fab (Fab, V domains shown)
VH: B1 VH
VL: B1 VL
[1]
  IC50 on human MMP-9 activity (fluorogenic substrate, 10 µM): ~33 nM
[4]
  residual enzyme activity in the presence of 1 µM antibody, 10 µM fluorogenic peptide substrate (unit not given): 8
Human MMP-1
  residual enzyme activity in the presence of 1 µM antibody, 10 µM fluorogenic peptide substrate (unit not given): 104
Human MMP-2
  residual enzyme activity in the presence of 1 µM antibody, 10 µM fluorogenic peptide substrate (unit not given): 126
Human MMP-3
  residual enzyme activity in the presence of 1 µM antibody, 10 µM fluorogenic peptide substrate (unit not given): 82
Human MMP-7
  residual enzyme activity in the presence of 1 µM antibody, 10 µM fluorogenic peptide substrate (unit not given): 93
Human MMP-8
  residual enzyme activity in the presence of 1 µM antibody, 10 µM fluorogenic peptide substrate (unit not given): 100
Human MMP-10
  residual enzyme activity in the presence of 1 µM antibody, 10 µM fluorogenic peptide substrate (unit not given): 102
Mouse MMP-9
  residual enzyme activity in the presence of 1 µM antibody, 10 µM fluorogenic peptide substrate (unit not given): 94
Human MMP-12
  residual enzyme activity in the presence of 1 µM antibody, 10 µM fluorogenic peptide substrate (unit not given): 90
Human MMP-13
  residual enzyme activity in the presence of 1 µM antibody, 10 µM fluorogenic peptide substrate (unit not given): 106
Human MMP-14
  residual enzyme activity in the presence of 1 µM antibody, 10 µM fluorogenic peptide substrate (unit not given): 115
Mouse MMP-2
  residual enzyme activity in the presence of 1 µM antibody, 10 µM fluorogenic peptide substrate (unit not given): 113
